Data on one protein can be found in publication PMC4763187.

Substrate in this data set: O=C(O)C(=O)O
The experiment in a line: purified protein. The note with it: pH 8.0, 5 mM ATP, 0.5 mM CoA, 10 mM MgCl2, 2 mM DTT, oxalate up to 400 μM.

B1: MtAAE3 (Medicago truncatula Acyl Activating Enzyme 3; oxalyl-CoA synthetase) (Medicago truncatula) (protein)
chain: ETATTLTGLLQSVAEKFPSRRAISVAGKFDLTHSQLHELVESAANHLISAGIKPNDVVALTFPNTIEYVIMFLAVIRVRATAAPLNAAYTSEEFEFYLSDSESKLLLTPLEGNNPAQTAATKLNIPLGSVCFNKTEEETKLSISLNQTESANSVSELINEPSDVALFLHTSGTTSRPKGVPLSQHNLVSSVRNIESVYRLSELDSTVIVLPLFHVHGLIAGLLSSLGAGGAVALPAAGRFSASTFWKDMIQYNATWYTAVPTIHQIILDRHQSNPEPVYPKLRFIRSCSASLAPVILGRLEEAFGAPVLEAYAMTEATHLMCSNPLPEDGPHKAGSVGKPVGQEMAILDESGRVLEADVNGEVCIKGENVTKGYKNNEEANKSAFLFGWFHTGDIGYFDSDGYLHLVGRIKELINRGGEKISPIEVDAVLLGHQDVAQAVAFGVPDQKYGEEIHCAIIPREGSNIDAEEVLKYCKTNLTSFKVPKKVFITDSLPKTATGKILRRLVAEHFVSQA
In the case of B1, the Km was found to be 81.0 ± 8.1 µM.
